Patent publication US20180161428A1 (HARPOON THERAPEUTICS, published 2018)

Columns and labels:
hFc · flag · hPSMA = biological target: T1, hFc · flag · hPSMA (human, UniProt Q04609 44-750); assay: BLI (OCTET), expression supernatants, hFc.flag.hPSMA
T1 construct: The order of the parts follows the printed label; also called human PSMA; h PSMA-Fc; not shown: human Fc (hFc); flag tag
From the text: Supernatants were used to estimate Kd, kon, and koff (or kdis) to human and cynomolgus PSMA using the OCTET® system. […] The parental sdAb is listed as Anti-PSMA wt sdAb.6his in Table 1.

[1] = biological target: T2, TriTAC CD3 high aff. - C324; assay: BLI (Octet), cynomolgus albumin (CSA)
T2 construct: Trispecific single chain: anti-PSMA sdAb, anti-HSA sdAb, anti-CD3 scFv, 6xHis (the tag is part of the entry); also called PSMA TriTAC CD3 high aff; C00324

[2] = biological target: T3, Tool TriTAC high aff. - C236; assay: BLI (Octet), cynomolgus albumin (CSA)
T3 construct: Trispecific single chain: anti-PSMA sdAb, anti-HSA sdAb, anti-CD3 scFv, 6xHis (the tag is part of the entry); also called Tool PSMA TriTAC; C00236

PSMA TriTAC (HTS)-C364 [3] = biological target: T4, PSMA TriTAC (HTS)-C364; assay: BLI (Octet), cynomolgus albumin (CSA)
T4 construct: Trispecific single chain: anti-PSMA sdAb, anti-HSA sdAb, anti-CD3 scFv, 6xHis (the tag is part of the entry); also called PSMA HTS TriTAC C364; C00364

PSMA TriTAC (HDS)-C363 [4] = biological target: T5, PSMA TriTAC (HDS)-C363; assay: BLI (Octet), cynomolgus albumin (CSA)
T5 construct: Trispecific single chain: anti-PSMA sdAb, anti-HSA sdAb, anti-CD3 scFv, 6xHis (the tag is part of the entry); also called PSMA HDS TriTAC C363; C00363

PSMA-TriTAC (p8)-C362 [5] = biological target: T6, PSMA-TriTAC (p8)-C362; assay: BLI (Octet), cynomolgus albumin (CSA)
T6 construct: Trispecific single chain: anti-PSMA sdAb, anti-HSA sdAb, anti-CD3 scFv, 6xHis (the tag is part of the entry); also called PSMA p8 TriTAC C362; C00362

[6] = biological target: T2, TriTAC CD3 high aff. - C324; assay: BLI (Octet), human CD3-Flag-Fc on anti-human IgG Fc biosensors
PSMA TriTAC (HTS)-C364 [7] = biological target: T4, PSMA TriTAC (HTS)-C364; assay: as above
PSMA TriTAC (HDS)-C363 [8] = biological target: T5, PSMA TriTAC (HDS)-C363; assay: as above
PSMA-TriTAC (p8)-C362 [9] = biological target: T6, PSMA-TriTAC (p8)-C362; assay: as above
PSMA TriTAC (HTS)-C364 [10] = biological target: T4, PSMA TriTAC (HTS)-C364; assay: BLI (Octet), cynomolgus PSMA
PSMA TriTAC (HDS)-C363 [11] = biological target: T5, PSMA TriTAC (HDS)-C363; assay: BLI (Octet), cynomolgus PSMA
PSMA TriTAC (HTS)-C364 [12] = biological target: T4, PSMA TriTAC (HTS)-C364; assay: BLI (Octet), cynomolgus CD3
PSMA TriTAC (HDS)-C363 [13] = biological target: T5, PSMA TriTAC (HDS)-C363; assay: BLI (Octet), cynomolgus CD3
PSMA-TriTAC (p8)-C362 [14] = biological target: T6, PSMA-TriTAC (p8)-C362; assay: BLI (Octet), cynomolgus CD3
[15] = biological target: T2, TriTAC CD3 high aff. - C324; assay: BLI (Octet), cynomolgus CD3
[16] = biological target: T3, Tool TriTAC high aff. - C236; assay: BLI (Octet), cynomolgus CD3

T6 sequence (chain, as listed by the source): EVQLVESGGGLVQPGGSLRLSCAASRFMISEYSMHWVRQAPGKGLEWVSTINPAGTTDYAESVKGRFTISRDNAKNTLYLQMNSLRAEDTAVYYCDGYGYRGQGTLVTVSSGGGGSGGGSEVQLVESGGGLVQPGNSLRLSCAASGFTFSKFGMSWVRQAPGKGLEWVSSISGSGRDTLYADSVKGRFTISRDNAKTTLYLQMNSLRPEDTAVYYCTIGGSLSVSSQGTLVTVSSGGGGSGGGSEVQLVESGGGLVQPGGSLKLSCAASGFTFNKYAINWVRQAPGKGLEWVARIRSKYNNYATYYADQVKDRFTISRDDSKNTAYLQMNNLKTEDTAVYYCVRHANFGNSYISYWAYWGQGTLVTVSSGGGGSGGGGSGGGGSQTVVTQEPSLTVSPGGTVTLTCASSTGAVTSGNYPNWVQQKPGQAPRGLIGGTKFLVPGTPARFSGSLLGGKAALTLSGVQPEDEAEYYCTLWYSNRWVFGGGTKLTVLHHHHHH
T1 sequence (Q04609 44-750 limits assumed): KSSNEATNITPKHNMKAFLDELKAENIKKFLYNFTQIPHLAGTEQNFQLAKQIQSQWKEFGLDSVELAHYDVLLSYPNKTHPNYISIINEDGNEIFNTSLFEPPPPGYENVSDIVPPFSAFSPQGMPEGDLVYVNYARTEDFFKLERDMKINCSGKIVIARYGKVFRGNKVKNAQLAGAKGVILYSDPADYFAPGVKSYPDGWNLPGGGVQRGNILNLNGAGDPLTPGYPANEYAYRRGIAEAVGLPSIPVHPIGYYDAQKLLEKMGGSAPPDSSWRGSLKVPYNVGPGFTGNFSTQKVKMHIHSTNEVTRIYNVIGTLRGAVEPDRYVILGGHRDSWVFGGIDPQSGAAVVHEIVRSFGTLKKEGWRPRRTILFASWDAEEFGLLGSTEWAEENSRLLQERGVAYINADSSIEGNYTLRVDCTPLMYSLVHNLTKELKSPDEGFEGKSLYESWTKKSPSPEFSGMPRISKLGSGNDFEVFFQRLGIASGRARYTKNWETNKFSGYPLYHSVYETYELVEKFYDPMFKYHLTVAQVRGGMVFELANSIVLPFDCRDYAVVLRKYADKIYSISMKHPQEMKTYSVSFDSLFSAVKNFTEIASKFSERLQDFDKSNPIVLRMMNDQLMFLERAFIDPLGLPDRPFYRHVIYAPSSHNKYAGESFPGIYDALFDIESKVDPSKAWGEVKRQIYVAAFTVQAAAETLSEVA

Binder	Kd (hFc · flag · hPSMA)	koff (hFc · flag · hPSMA)	kon (hFc · flag · hPSMA)	other results
Anti-PSMA wt sdAb.6his (VHH, Tested as supernatant of Expi293 cells; also called parental sdAb; parental anti-PSMA single domain antibody) VHH: EVQLVESGGGLVQPGGSLTLSCAASRFMISEYSMHWVRQAPGKGLEWVSTINPAGTTDYAESVKGRFTISRDNAKNTLYLQMNSLKPEDTAVYYCDGYGYRGQGTQVTVSS	15 nM	0.0132 s⁻¹	877000 M⁻¹ s⁻¹	–
anti-PSMA E31P sdAb.6his (VHH) VHH: EVQLVESGGGLVQPGGSLTLSCAASRFMISPYSMHWVRQAPGKGLEWVSTINPAGTTDYAESVKGRFTISRDNAKNTLYLQMNSLKPEDTAVYYCDGYGYRGQGTQVTVSS	9.5 nM	0.00366 s⁻¹	383000 M⁻¹ s⁻¹	–
anti-PSMA S33H T50D G97SsdAb.6his (VHH) VHH: EVQLVESGGGLVQPGGSLTLSCAASRFMISEYHMHWVRQAPGKGLEWVSDINPAGTTDYAESVKGRFTISRDNAKNTLYLQMNSLKPEDTAVYYCDSYGYRGQGTQVTVSS	6.7 nM	0.00538 s⁻¹	800000 M⁻¹ s⁻¹	–
anti-PSMA S33H G97SsdAb.6his (VHH) VHH: EVQLVESGGGLVQPGGSLTLSCAASRFMISEYHMHWVRQAPGKGLEWVSTINPAGTTDYAESVKGRFTISRDNAKNTLYLQMNSLKPEDTAVYYCDSYGYRGQGTQVTVSS	0.21 nM	0.000197 s⁻¹	936000 M⁻¹ s⁻¹	–
anti-PSMA T56Q sdAb.6his (VHH) VHH: EVQLVESGGGLVQPGGSLTLSCAASRFMISEYSMHWVRQAPGKGLEWVSTINPAGQTDYAESVKGRFTISRDNAKNTLYLQMNSLKPEDTAVYYCDGYGYRGQGTQVTVSS	5.6 nM	0.00461 s⁻¹	822000 M⁻¹ s⁻¹	–
anti-PSMA G55K sdAb.6his (VHH) VHH: EVQLVESGGGLVQPGGSLTLSCAASRFMISEYSMHWVRQAPGKGLEWVSTINPAKTTDYAESVKGRFTISRDNAKNTLYLQMNSLKPEDTAVYYCDGYGYRGQGTQVTVSS	4.5 nM	0.00248 s⁻¹	556000 M⁻¹ s⁻¹	–
CSA (other, cynomolgus, UniProt A2V9Z4 25-608, looked up, also called cynomolgus serum albumin) DTHKSEVAHRFKDLGEEHFKGLVLVAFSQYLQQCPFEEHVKLVNEVTEFAKTCVADESAENCDKSLHTLFGDKLCTVATLRETYGEMADCCAKQEPERNECFLQHKDDNPNLPPLVRPEVDVMCTAFHDNEATFLKKYLYEVARRHPYFYAPELLFFAARYKAAFAECCQAADKAACLLPKLDELRDEGKASSAKQRLKCASLQKFGDRAFKAWAVARLSQKFPKAEFAEVSKLVTDLTKVHTECCHGDLLECADDRADLAKYMCENQDSISSKLKECCDKPLLEKSHCLAEVENDEMPADLPSLAADYVESKDVCKNYAEAKDVFLGMFLYEYARRHPDYSVMLLLRLAKAYEATLEKCCAAADPHECYAKVFDEFQPLVEEPQNLVKQNCELFEQLGEYKFQNALLVRYTKKVPQVSTPTLVEVSRNLGKVGAKCCKLPEAKRMPCAEDYLSVVLNRLCVLHEKTPVSEKVTKCCTESLVNRRPCFSALELDEAYVPKAFNAETFTFHADMCTLSEKEKQVKKQTALVELVKHKPKATKEQLKGVMDNFAAFVEKCCKADDKEACFAEEGPKFVAASQAALA	–	–	–	Kd [1]: 9.7 nM; Kd [2]: 25.4 nM; Kd (PSMA TriTAC (HTS)-C364 [3]): 8.6 nM; Kd (PSMA TriTAC (HDS)-C363 [4]): 8.4 nM; Kd (PSMA-TriTAC (p8)-C362 [5]): 6.6 nM
human CD3-Flag-Fc protein (Fc fusion, UniProt P07766 23-126, looked up, also called CD3e; not shown: Flag tag) DGNEEMGGITQTPYKVSISGTTVILTCPQYPGSEILWQHNDKNIGGDEDDKNIGSDEDHLSLKEFSELEQSGYYVCYPRGSKPEDANFYLYLRARVCENCMEMD	–	–	–	Kd [6]: 7.4 nM; Kd (PSMA TriTAC (HTS)-C364 [7]): 7.7 nM; Kd (PSMA TriTAC (HDS)-C363 [8]): 8 nM; Kd (PSMA-TriTAC (p8)-C362 [9]): 8.3 nM
cynomolgus PSMA (other, the methods describe only the human PSMA-Fc format; also called cyno PSMA) KSSSEATNITPKHNMKAFLDELKAENIKKFLHNFTQIPHLAGTEQNFQLAKQIQSQWKEFGLDSVELTHYDVLLSYPNKTHPNYISIINEDGNEIFNTSLFEPPPAGYENVSDIVPPFSAFSPQGMPEGDLVYVNYARTEDFFKLERDMKINCSGKIVIARYGKVFRGNKVKNAQLAGATGVILYSDPADYFAPGVKSYPDGWNLPGGGVQRGNILNLNGAGDPLTPGYPANEYAYRRGIAEAVGLPSIPVHPIGYYDAQKLLEKMGGSASPDSSWRGSLKVPYNVGPGFTGNFSTQKVKMHIHSTSEVTRIYNVIGTLRGAVEPDRYVILGGHRDSWVFGGIDPQSGAAVVHEIVRSFGTLKKEGWRPRRTILFASWDAEEFGLLGSTEWAEENSRLLQERGVAYINADSSIEGNYTLRVDCTPLMYSLVYNLTKELESPDEGFEGKSLYESWTKKSPSPEFSGMPRISKLGSGNDFEVFFQRLGIASGRARYTKNWETNKFSSYPLYHSVYETYELVEKFYDPMFKYHLTVAQVRGGMVFELANSVVLPFDCRDYAVVLRKYADKIYNISMKHPQEMKTYSVSFDSLFSAVKNFTEIASKFSERLRDFDKSNPILLRMMNDQLMFLERAFIDPLGLPDRPFYRHVIYAPSSHNKYAGESFPGIYDALFDIESKVDPSQAWGEVKRQISIATFTVQAAAETLSEVA	–	–	–	Kd (PSMA TriTAC (HTS)-C364 [10]): 663 nM; Kd (PSMA TriTAC (HDS)-C363 [11]): 540 nM
cynomolgus CD3 (receptor, UniProt Q95LI5 22-117, looked up, The methods describe only the human CD3-Flag-Fc format; also called cyno CD3e) QDGNEEMGSITQTPYQVSISGTTVILTCSQHLGSEAQWQHNGKNKEDSGDRLFLPEFSEMEQSGYYVCYPRGSNPEDASHHLYLKARVCENCMEMD	–	–	–	Kd (PSMA TriTAC (HTS)-C364 [12]): 3.8 nM; Kd (PSMA TriTAC (HDS)-C363 [13]): 5.2 nM; Kd (PSMA-TriTAC (p8)-C362 [14]): 4.3 nM; Kd [15]: 5.8 nM; Kd [16]: 4.7 nM
